{"source": "the domain aggregation screens of Martell et al. (2025)", "data": [{"experiment": "soluble fraction after stress (log2 fold change); higher = more stays soluble; pooled small domains, quantitative proteomics", "settings": "stress: 50 degC", "procedure,_shortened": "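Pooled custom libraries of small protein domains were each held under stress at 50°C. The read-out, high-throughput quantitative proteomics, tracked how much of each protein stayed soluble. This is reported as a base-two log fold change used to indicate aggregation propensity. Higher values mean more protein remains in solution.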", "values": [{"sequence": "HMSMANKKDFILDTAQKLFMEQGFDQTSISQILEATQIARGTLYYYFSSKEEIMDAIIERTIEQ", "soluble fraction (log2)": -1.05}, {"sequence": "HMLKHNLLSELSRIEGVGAVKRKALMDKFGTVENIKRASEEELSEVAGIGPTLARTIKEQMNKDE", "soluble fraction (log2)": -0.184}, {"sequence": "HMQTASVRFADGQLEVKQKGLQRVSVYSLNGMTVANKAVQGQDYVTISLPRAAYIVKITTQNGSFTKVI", "soluble fraction (log2)": -0.207}, {"sequence": "HMSPRQVTAVRSGSPMPVLPGEDWRLYDASGALVARGSGAAPIPKSTGLLRLNSEGLDGLADRWIWVL", "soluble fraction (log2)": -0.255}, {"sequence": "HMQDRDKNIEEGRQLVLHEMDRLDLVDEPLHDVARQLNMKAVEDMFAAVGAGDLRLGQIIHQLLKQADTN", "soluble fraction (log2)": -0.0442}, {"sequence": "HMKNESLMLPRDIDYSRVHGLSNEAIQKLQDALPQSLGQASRIEGITPATLSLLLLYLKKNNKRI", "soluble fraction (log2)": -0.00929}, {"sequence": "HMYAEVTITIEKGMTSDSVSKLLYKAGIVDDAKEFNNYIIKAGKSTKILIGEFTIQKGASYDDIIKIIA", "soluble fraction (log2)": -1.37}, {"sequence": "HMENNNIAFSKFLEEVDSGRVVQVEIQGNNISGTLSDGSKFKTYSPNYPDLVSKLSEKNVSIIASPV", "soluble fraction (log2)": 0.115}, {"sequence": "HMIPKIIDITDLNEEVREVIEEYMKRKRVEKYHIYQDSKGQIFIISGSAIIRYDSKLNNLYYL", "soluble fraction (log2)": -0.405}, {"sequence": "HMELAALKILNSPIGKIAIGTSENGLVKLDILTSGQTRAEFSDLPKAHKLALDAADQLAAYF", "soluble fraction (log2)": 0.0579}, {"sequence": "HMSWDNELLERAHKIIELYPQKRSALGPLLYLAQEKDGFISDDSIVEISNLVDITEVQVKSVSSFYSMY", "soluble fraction (log2)": -0.268}, {"sequence": "HMFDKNKPVVVEGENAEVALKKVSKYFNVPTEKLDYTLLGQKSAGLLGIGSKVYQFKVWLKREIP", "soluble fraction (log2)": 0.396}, {"sequence": "HMKTEIGQAMRKLRKAKKMTQDTLAEKLGVAPANISRYEKGQQGIEVDKLPTLADALGVSVPEFFAIASG", "soluble fraction (log2)": 0.0437}, {"sequence": "HMDRPEPLYIVNGKEVQTLEEAFELGRTLGSAKKGTQVRLRRLLPEEGVEKYGEKGRNGVFEFMVSA", "soluble fraction (log2)": 0.217}, {"sequence": "HMDIDASEVRGIISQYINEPDGRVSYILETIQKKYRYLPEEAIRIVAQELEVPLTQLFGVATFYAAFSL", "soluble fraction (log2)": 0.0443}, {"sequence": "HMGQAVTMLKAGRLLANAKGTGAPVRSLEPGMLLYPTGVKEGTMWEVEDEMGNKGWVNSTLMETA", "soluble fraction (log2)": -0.212}, {"sequence": "HMVGKIVVPHLEGKPAEMARDILARDGFKSVHEEVLPSAEFGAGRVVRTEPHAGTNVAKTDPVTIFVSVGL", "soluble fraction (log2)": -0.00887}, {"sequence": "HMEKNKERIAFLKKRLEMYYEAEEKILQGQSYTIGSRTLTRTSLANVQSKIKELESEISALETRGN", "soluble fraction (log2)": -0.57}, {"sequence": "HMDENVVLRKVAREAFVIEYVRGIRAIDPGIGGPKLWLMYKREFGDNDTVGRDTFEDILDRNNLKVRI", "soluble fraction (log2)": -3.26}, {"sequence": "HMKEATTSPLDGIPGIGSKRKKALLSHFGSARSVARADIPDLMRVDGISRQVAETIYGWFHN", "soluble fraction (log2)": -0.179}, {"sequence": "HMSLPDREVVLETSSDSYYHFKTDHFQRQITYSAVRNAPVRLVTISAERAFEVISLNRRGERPEHLE", "soluble fraction (log2)": -3.53}, {"sequence": "HMSEKLLTLNEISEKLRVSRHTVQAWVSPSSPNHRPEFSSLARHAGRKTVFLESDVDAWLAQRR", "soluble fraction (log2)": -0.839}, {"sequence": "HMVSEDELLARIALLPYPQAKILLEERLSHDPANAKVRQLYLELAKKSGDHTEVTRHNSLLY", "soluble fraction (log2)": -0.104}, {"sequence": "HMKPSKYTLAIDSIPVHVTRKQMKSIRLRVTPLGEVRVSAPYGVKDSEIVEMVRSRKLWIESQQRA", "soluble fraction (log2)": -0.992}, {"sequence": "HMQYRQRRGLERMELILDAATRVVAEVGYERTTTNAIATRAGISPGSLYQYFSSKEDIASALWERYAE", "soluble fraction (log2)": -0.23}, {"sequence": "HMEEVRFPLKKEILLWALKEAQVDEDEVFRKFTNLEKWINGEKHPTFKQIESLANYLKIPFGYMFLEKPPI", "soluble fraction (log2)": 0.0399}, {"sequence": "HMLTLEDMTRINSIISPRIKKGQSLYHIAKNNGDELNISESTLRRLVMTGEMDAGIIDLPQAVK", "soluble fraction (log2)": -0.138}, {"sequence": "HMGVENDGYVLPRELKKGDTVLIADLGKEATVLSPVDRNGNVEVLAGAAKTRVKLKNLRLIE", "soluble fraction (log2)": 0.13}, {"sequence": "HMTENLELLATGSLWTEPDGSGKIISYLIPGLRVKKLETNGIFYKIQLQNGLIGWADQSLFTIAEPK", "soluble fraction (log2)": -0.0642}, {"sequence": "HMSSADIPFSRFIDDVEAQRVEKVTIDGVNVTGRYRSDGAAFKTIIPSQYDGLVPILRQNKVDITVKDA", "soluble fraction (log2)": 0.123}, {"sequence": "HMSTDKIDIVSSAILSSLKDNDGFIGLTDKSPPPEIYTAFRVSKKVFKQAIGALYKQRRITLESSGIRLIS", "soluble fraction (log2)": -0.193}, {"sequence": "HMTASVTDAMFELIDELPKLGKTSFRQLTADLVDRLQVVVTFLAVLELYKQGHVELDQSERFGDITVVWTG", "soluble fraction (log2)": -0.0255}, {"sequence": "HMVVSDKIAFSSFLKSVEDGRVVEVEITGNDIRGILSDGTVFNTYAPNDPNLVEKLTSKGVNITALPKE", "soluble fraction (log2)": 0.19}, {"sequence": "HMSFGYFQLRAKDPQKLKSVLEKIPQIQSIKEEKGDLIGYLNADMEAEELSQKLAAAKIFVTHMAKKK", "soluble fraction (log2)": -0.0166}, {"sequence": "HMNVNSMIGKEGRVIEDIDNFNETGRIIVDGMEWTARAVNEQSITSGQKVVIREIQGVKAMVVPM", "soluble fraction (log2)": 0.187}, {"sequence": "HMTIFGWQQDETGKWYRNADGTFYENGWKEIDGAQYYFDENGYVTTGWLELDGKDYYFDEEGKYDSTKVR", "soluble fraction (log2)": -0.46}, {"sequence": "HMKEILLITGKGLHSGQDDVYKSAQLSKLRYSVPEFIKSNLEISQLILSVETPLQKDGGDGALLIK", "soluble fraction (log2)": 0.13}, {"sequence": "HMNNSSIGERLKYQRKIKGYSQEELADRTNVTVRTIQRIEKEEVSPHLNTIKLLAIALDIEVDELVAL", "soluble fraction (log2)": -1.25}]}]}
